Measured values from the supplement of paper PMC10567573.

B1: C10orf62 (parent)
chain: GHSHHSHHGHPSHQSHSLPNRRH

Variants of: B1
Test: protein stability index of a GFP-peptide fusion (GPS, HEK-293T) (PSI 1-6); higher = more stable
Conditions: c terminus: native
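Note: lentivirally expressed fusions sorted by FACS into six bins by GFP to DsRed ratio, PSI derived from sequencing read proportions per bin multiplied by bin number.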

Protein stability index, by site and new letter:
Q14: G 2.82 | R 3.61 | D 3.4 | V 2.08 | F 2.56 | S 2.26 | E 2 | N 2.92 | W 3.44 | A 3.39 | M 4.32 | Y 1.85 | P 2.67 | H 3.42 | K 2.75 | I 2.95 | T 3.78
H13: P 2.47 | L 3.34 | Y 3.26 | A 3.6 | D 2.86 | E 2.68 | S 2.65 | W 2.6 | F 3.57 | M 5.42 | Q 2.12 | K 2.51 | R 2.55 | C 3.33 | T 3.08
H4: Q 2.37 | G 3.39 | P 3.51 | V 2.93 | E 2.76 | F 3.61 | D 2.31 | Y 2.93 | I 2.58 | A 2.45 | C 2.69 | N 4.06 | K 2.15
H16: P 2.52 | A 2.55 | S 3 | G 3.63 | C 2.19 | V 2.2 | W 3.05 | I 3.15 | M 2.32 | E 1.78 | D 3.54 | T 2.08 | F 3.84
H5: S 2.38 | I 2.64 | P 4.04 | M 2.23 | F 3.95 | G 2.33 | D 3.54 | L 2.65 | K 1.69 | C 3.11 | Y 3.13 | N 2.35 | E 2.3 | T 3.1 | W 2.3 | A 2.92
S6: V 2.71 | I 2.27 | M 3.95 | T 3.3 | K 1.55 | A 4.79 | Q 3.1 | L 3.37 | W 4 | N 3.28 | H 4.03 | P 2.12 | D 2.08 | E 1.84 | R 2.98 | F 2.95 | Y 3.47
R22: D 3.39 | T 3.14 | A 3.28 | W 2.86 | S 3.94 | F 2.84 | E 2 | H 4.93 | K 4 | Q 2.69 | Y 2.11 | M 3 | G 2.15 | L 1.29 | P 3.56
H23: R 4.71 | N 3.15 | C 2.68 | Q 2.48 | F 2.77 | I 2.78 | P 2.31 | K 4.73 | A 2.23 | L 3.52 | M 2.18
H8: A 5.15 | C 4 | P 1.38 | K 3.13 | Q 2.84 | S 2.96 | M 2.06 | G 2.46 | T 3.37 | R 2.72 | Y 3.29 | E 2.42 | D 1.96 | N 4.02 | F 3.5 | I 3.3
S3: R 3.09 | I 2.2 | L 1.31 | Y 3.14 | A 3.05 | C 3.13 | W 2.33 | Q 2.63 | F 2.38 | H 2.27 | K 2.75 | D 2.29 | V 3.19 | N 2.89
P19: L 2.28 | C 2.95 | E 2 | D 3.02 | R 2.09 | N 2.4 | F 2.38 | T 4.47 | K 2.15 | Y 3.05 | Q 2.38 | H 2.4 | G 2.35
H2: W 3 | N 3.26 | T 3.56 | L 3.18 | P 1.89 | K 3.36 | S 3.15
